Our source for the percent of pol IIa recovered in the immunoprecipitate values is article PMC2185550.

Where “and” joins values, the source holds several entries; their conditions need not be identical. Equal entries are not always repeated.

Assay [1] has as its target p300 (human (endogenous in HEp-2)) (UniProt Q09472). Nature of the assay: co-IP.
The target of assay [2] is CREB-binding protein (CBP) (human (endogenous in HEp-2)) (UniProt Q92793). Nature of the assay: co-IP.
Chain of UniProt Q92793 (Q92793 whole entry): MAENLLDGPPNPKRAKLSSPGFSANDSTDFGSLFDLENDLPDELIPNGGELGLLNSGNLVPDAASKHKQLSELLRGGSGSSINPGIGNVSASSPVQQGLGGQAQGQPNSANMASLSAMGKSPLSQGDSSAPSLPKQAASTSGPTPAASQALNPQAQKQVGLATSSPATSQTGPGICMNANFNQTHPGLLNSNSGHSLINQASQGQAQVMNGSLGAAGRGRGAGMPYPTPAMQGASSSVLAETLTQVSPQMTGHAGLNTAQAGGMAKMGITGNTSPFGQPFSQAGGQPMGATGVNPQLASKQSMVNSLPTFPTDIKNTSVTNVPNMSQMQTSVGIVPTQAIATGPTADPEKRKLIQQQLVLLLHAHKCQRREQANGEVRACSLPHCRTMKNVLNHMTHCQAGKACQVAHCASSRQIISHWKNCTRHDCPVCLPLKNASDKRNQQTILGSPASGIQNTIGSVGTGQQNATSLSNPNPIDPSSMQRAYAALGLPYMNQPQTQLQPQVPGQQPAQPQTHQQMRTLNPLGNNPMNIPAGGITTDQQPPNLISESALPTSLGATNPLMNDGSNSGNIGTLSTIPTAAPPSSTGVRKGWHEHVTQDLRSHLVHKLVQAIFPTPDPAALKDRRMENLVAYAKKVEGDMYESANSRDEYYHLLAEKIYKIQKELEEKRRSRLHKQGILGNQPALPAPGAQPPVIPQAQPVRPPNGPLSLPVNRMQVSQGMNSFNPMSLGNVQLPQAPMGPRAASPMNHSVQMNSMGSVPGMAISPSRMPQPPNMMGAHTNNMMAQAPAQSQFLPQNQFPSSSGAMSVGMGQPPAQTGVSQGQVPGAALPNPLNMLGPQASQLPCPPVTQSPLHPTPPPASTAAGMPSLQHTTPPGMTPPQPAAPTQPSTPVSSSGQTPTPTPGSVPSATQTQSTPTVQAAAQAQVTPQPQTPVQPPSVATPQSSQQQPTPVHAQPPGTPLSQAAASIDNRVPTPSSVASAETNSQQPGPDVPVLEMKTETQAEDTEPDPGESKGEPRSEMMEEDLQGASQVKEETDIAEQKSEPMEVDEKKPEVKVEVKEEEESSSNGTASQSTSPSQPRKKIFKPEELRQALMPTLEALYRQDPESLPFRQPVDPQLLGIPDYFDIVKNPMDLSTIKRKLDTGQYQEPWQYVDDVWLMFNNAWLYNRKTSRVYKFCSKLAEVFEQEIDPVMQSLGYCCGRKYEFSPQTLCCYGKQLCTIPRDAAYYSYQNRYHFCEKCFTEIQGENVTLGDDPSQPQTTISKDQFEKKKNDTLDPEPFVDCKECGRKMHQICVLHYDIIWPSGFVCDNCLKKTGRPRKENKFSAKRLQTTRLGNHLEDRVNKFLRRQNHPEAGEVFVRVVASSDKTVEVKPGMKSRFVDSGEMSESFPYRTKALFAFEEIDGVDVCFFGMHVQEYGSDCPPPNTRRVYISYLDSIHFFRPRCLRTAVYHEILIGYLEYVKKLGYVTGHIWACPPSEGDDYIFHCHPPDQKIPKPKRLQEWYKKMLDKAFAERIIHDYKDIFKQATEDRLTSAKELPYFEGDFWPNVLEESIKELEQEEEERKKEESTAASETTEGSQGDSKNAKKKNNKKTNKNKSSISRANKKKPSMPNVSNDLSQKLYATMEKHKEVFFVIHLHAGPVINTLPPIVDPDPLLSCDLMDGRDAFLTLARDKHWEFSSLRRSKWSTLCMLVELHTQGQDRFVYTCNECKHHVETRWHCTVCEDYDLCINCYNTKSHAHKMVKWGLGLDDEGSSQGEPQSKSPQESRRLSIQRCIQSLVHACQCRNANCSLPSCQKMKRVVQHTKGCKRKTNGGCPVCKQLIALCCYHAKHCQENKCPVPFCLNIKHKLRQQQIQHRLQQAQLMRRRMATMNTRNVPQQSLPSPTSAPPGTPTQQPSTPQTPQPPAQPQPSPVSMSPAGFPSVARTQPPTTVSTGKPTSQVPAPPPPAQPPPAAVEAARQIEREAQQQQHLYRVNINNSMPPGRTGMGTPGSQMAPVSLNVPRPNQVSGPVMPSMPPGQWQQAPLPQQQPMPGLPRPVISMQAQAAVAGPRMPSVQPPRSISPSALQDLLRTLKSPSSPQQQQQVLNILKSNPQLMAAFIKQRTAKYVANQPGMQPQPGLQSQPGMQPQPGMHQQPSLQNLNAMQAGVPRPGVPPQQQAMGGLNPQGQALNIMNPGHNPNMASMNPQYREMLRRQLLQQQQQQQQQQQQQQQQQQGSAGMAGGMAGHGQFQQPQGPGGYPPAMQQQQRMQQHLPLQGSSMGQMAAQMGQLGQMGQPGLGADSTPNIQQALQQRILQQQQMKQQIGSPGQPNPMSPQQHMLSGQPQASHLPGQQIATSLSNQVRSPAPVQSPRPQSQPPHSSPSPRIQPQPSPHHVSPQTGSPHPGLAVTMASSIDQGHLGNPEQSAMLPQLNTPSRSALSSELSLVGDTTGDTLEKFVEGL

Chain of UniProt Q09472 (Q09472 whole entry): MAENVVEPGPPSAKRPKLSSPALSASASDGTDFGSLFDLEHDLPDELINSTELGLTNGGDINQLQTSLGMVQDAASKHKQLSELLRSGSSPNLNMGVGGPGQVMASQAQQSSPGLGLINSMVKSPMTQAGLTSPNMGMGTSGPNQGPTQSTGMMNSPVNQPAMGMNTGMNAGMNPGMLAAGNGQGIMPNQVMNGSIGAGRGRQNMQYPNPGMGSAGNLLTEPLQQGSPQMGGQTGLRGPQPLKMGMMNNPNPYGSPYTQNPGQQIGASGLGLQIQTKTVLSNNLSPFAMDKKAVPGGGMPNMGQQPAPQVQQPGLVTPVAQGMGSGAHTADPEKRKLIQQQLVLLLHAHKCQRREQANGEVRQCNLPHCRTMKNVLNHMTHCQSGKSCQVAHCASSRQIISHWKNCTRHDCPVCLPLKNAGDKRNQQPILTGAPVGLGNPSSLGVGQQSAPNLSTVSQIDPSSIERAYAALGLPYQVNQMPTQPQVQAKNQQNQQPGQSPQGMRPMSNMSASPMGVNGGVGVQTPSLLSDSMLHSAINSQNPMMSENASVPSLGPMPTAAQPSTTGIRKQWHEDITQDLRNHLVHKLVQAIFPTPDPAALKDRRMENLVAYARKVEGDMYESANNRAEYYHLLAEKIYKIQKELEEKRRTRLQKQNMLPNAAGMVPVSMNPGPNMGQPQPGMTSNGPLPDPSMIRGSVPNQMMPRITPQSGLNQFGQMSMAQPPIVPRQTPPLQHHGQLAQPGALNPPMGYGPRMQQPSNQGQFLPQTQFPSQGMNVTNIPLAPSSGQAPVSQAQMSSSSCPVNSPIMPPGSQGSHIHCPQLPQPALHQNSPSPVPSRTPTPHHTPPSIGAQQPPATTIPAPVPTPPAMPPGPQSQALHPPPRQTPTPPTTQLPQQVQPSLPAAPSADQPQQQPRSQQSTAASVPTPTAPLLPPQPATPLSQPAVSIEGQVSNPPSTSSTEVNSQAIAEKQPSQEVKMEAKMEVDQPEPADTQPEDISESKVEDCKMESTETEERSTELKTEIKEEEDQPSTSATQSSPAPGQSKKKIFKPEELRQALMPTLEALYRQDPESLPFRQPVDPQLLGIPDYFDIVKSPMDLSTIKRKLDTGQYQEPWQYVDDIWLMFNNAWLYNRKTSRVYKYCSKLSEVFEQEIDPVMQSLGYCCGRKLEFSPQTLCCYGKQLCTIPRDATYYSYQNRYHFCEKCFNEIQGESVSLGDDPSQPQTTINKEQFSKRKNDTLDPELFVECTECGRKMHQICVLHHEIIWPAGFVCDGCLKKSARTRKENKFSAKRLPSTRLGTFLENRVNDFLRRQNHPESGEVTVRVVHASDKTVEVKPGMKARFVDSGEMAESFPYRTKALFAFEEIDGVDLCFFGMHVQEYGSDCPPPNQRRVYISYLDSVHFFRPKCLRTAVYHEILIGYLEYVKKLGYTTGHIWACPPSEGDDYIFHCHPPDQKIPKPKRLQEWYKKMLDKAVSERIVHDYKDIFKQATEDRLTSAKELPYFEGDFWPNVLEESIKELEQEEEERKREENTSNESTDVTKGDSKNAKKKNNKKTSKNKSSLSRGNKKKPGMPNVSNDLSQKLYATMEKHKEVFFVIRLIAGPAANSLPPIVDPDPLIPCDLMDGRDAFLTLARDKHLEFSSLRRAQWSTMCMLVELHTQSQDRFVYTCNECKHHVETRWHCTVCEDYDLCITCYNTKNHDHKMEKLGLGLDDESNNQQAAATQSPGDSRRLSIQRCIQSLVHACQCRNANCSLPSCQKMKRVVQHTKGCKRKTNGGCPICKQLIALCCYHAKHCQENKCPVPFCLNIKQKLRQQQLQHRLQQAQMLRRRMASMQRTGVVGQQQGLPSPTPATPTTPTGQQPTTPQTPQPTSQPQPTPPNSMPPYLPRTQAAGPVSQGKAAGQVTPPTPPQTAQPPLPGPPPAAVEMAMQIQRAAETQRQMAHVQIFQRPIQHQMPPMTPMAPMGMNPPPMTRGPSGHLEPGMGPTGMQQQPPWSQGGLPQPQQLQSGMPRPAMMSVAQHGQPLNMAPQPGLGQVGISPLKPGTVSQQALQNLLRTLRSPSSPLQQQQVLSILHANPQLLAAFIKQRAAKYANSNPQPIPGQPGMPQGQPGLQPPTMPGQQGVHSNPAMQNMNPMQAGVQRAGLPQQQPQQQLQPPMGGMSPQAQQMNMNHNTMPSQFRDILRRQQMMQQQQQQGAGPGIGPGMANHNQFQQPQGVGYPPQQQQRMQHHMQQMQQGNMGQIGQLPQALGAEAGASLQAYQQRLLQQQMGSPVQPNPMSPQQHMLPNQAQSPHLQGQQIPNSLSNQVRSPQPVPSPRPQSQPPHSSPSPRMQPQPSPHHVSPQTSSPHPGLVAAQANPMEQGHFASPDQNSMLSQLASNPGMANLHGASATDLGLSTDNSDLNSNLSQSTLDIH

Turning to “hypophosphorylated RNA polymerase II (pol IIa), largest subunit (from UniProt P24928 1-1970) (natural protein)”, the percent of pol IIa recovered in the immunoprecipitate in assay [1] is 10% and 20%; in assay [2], 10% and 20%.
